Results published in US20190177416A1 (NANOMAB TECHNOLOGY, published 2019).

Target: T1, human PD-L1 protein (coated antigen) (human, UniProt Q9NZQ7 19-238, limits assumed)
T1 construct: Construct not described; also called PD-L1 antigen; antigenic protein PD-L1
Assay: PE-ELISA, crude extract on coated PD-L1
Description: (1) From the cell culture dishes containing phage after 3-4 rounds of screening in Example 2, 1000 individual colonies were selected and inoculated into TB medium containing 100 μg/ml of ampicillin (1 liter of TB medium contains 2.3 g of potassium dihydrogen phosphate, 12.52 g of dipotassium hydrogen phosphate, 12 g of peptone, 24 g of yeast extract, 4 ml of glycerol), after growth to log phase, add a final concentration of […] of IPTG, culture at 28° C. overnight. (2) The crude antibody was obtained by the infiltration method, and the antibody was transferred to an antigen-coated ELISA plate and placed at room temperature for 1 hour. (3) Unbound antibody was washed away with PBST, and a mouse anti-HA tag antibody (anti-mouse anti-HA antibody, purchased from Beijing Kangwei Century Biotechnology Co., Ltd.) was added and placed at room temperature for 1 hour. (4) Unbound antibody was washed away with PBST, and anti-mouse alkaline phosphatase conjugate (goat anti-mouse alkaline phosphatase-labeled antibody, purchased from Amytech Co., Ltd.) was added and placed at room temperature for 1 hour. (5) Wash the unbound antibody with PBST, add alkaline phosphatase coloring solution, and read the absorbance at 405 nm on an ELISA apparatus. (6) When the OD value of the sample well is more than 3 times the OD value of the control well (Ratio+/−>3), it is judged as a positive clone hole. (7) The bacteria of the positive clone well were shaken in a LB liquid containing 100 μg per ml to extract a plasmid and perform sequencing.

T1 sequence (Q9NZQ7 19-238 limits assumed): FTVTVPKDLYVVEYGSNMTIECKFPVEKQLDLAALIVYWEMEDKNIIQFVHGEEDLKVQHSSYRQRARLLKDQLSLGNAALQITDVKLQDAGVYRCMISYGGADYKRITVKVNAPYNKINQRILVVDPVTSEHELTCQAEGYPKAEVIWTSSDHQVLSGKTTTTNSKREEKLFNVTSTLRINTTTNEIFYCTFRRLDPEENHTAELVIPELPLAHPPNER

| Binder | OD ratio (experimental group (A405 nm)/control group (A405 nm)) |
| --- | --- |
| SEQ ID NO 38 (VHH, pMECS-expressed; also called VHH numbered 38) VHH: QVQLQESGGGSVQTGGSLRLSCAASTSIYSNNYMAWFSQAPGKGREGVAAVYIGDGRPYYADSAKGRFTISLDSAKNTVYLQMNSLKPEDTAMYYCAAAPGPLSRNYWYTSANYDYWGQGTQVTVSS | > 20 |
| SEQ ID NO 39 (VHH, pMECS-expressed; also called VHH numbered 39) VHH: QVQLQESGGGSVQTGGSLRLSCAASTSIYSNNYMAWFSQAPGKGREGVAALYIGDGRPYYADSVKGRFTIALDSAKNTVYLQMNGLKPEDTAMYYCAAAPGPLKHNYWYTSANYDYWGQGTQVTVSS | > 20 |
| SEQ ID NO 40 (VHH, pMECS-expressed; also called VHH numbered 40) VHH: QVQLQESGGGSVQTGGSLRLSCAASTSIYSNNYMAWFSQAPGKGREGVAALYIGDGRPYYADSVKGRFTIALDSAKNTVYLQMNGLKPEDTAMYYCAAAPGPLKHNYWYTSANYDYWGQGTQVTVSS | > 20 |
| SEQ ID NO 41 (VHH, pMECS-expressed; also called VHH numbered 41) VHH: QVQLQESGGGSVQTGGSLRLSCAASTSIYSNNYMAWFRQAPGKGREGVAAVYIGDGRPYYADSAKGRFTISLDSAKNTVYLQMNSLKPEDTAMYYCAAAPGPLSRHYWYTSANYDYWGPGTQVTVSS | > 20 |
| SEQ ID NO 42 (VHH, pMECS-expressed; also called VHH numbered 42) VHH: QVQLQESGGGSVQTGGSLTLSCAASTSIYSYNYMAWFRQAPGKGREGVAAVYIGDGRPYYADSVKGRFTISPDSAKNTVYLQMNSLKPEDTAMYYCAAAPGPLSRHYWYTSANYDYWGPGTQVTVSS | > 20 |
| SEQ ID NO 43 (VHH, pMECS-expressed; also called VHH numbered 43) VHH: QVQLQESGGGSVQTGGSLRLSCAASSSIASNNYMAWFSQAPGKGREGVAAVYIGDGRPYYADSVKGRFTISLDSAKNTVYLQMNSLKPEDTAMYYCAAAPGPLSRNYWYTSANYDYWGQGTQVTVSS | > 20 |
| SEQ ID NO 44 (VHH, pMECS-expressed; also called VHH numbered 44) VHH: QVQLQESGGGSVRTGGSLRLSCAASTSIYSLNYMAWFSQAPGKGREGVAAVYIDDGRPYYADHVKGRFTISLDTAKNTVYLQMNSLKPEDTAMYYCAAAPGPLSRNYWYTSANYDYWGQGTQVTVSS | > 20 |
| SEQ ID NO 46 (VHH, pMECS-expressed; also called VHH numbered 46) VHH: QVQLQESGGGSVQTGGSLRLSCAASTSIDSNNYMAWFRQAPGKGREGVAAVYIDDGRPYYADSVKGRFTISLDSAKNTVYLQMNSLKPEDTAMYYCAAAPGPLSRHYWYTSANYDYWGPGTQVTVSS | > 20 |
| SEQ ID NO 47 (VHH, pMECS-expressed; also called VHH numbered 47) VHH: QVQLQESGGGSVQTGGSLRLSCTASTSIYNNNYMAWFSQSPGKGREGVAAVYMDDGRPYYADSVKGRFTISLDSAKNTMYLQMNSLKPEDTAMYYCAAAPGPLSRNYWYTSANYDYWGQGTQVTVSS | > 20 |
| SEQ ID NO 48 (VHH, pMECS-expressed; also called VHH numbered 48) VHH: QVQLQESGGGSVQTGGSLRLSCAASTSIYSNNYMAWFSQAPGKGREGVAAVYIDDGRTYYADSVKGRFTISLDSAKNTVYLQMNSLKPEDTAMYYCAAAPGPLSHNYWYASANYDYWGQGTQVTVSS | > 20 |
| SEQ ID NO 49 (VHH, pMECS-expressed; also called VHH numbered 49) VHH: QVQLQESGGGSVQTGGSLRLSCAASTSIYSINYMAWFSQAPGKGREGVAAVYIDDGRPYYADSVKGRFTISLDSAKNTVYLQMNSLKPEDTAMYYCAAAPGPLSRNYWYTSANYDYWGQGTQVTVSS | > 20 |
| SEQ ID NO 51 (VHH, pMECS-expressed; also called VHH numbered 51) VHH: QVQLQESGGGSVQTGGSLRLSCTASTSIYSNSYMAWFSQAPGKGREGVAAVYIDDGRPYYADSVKGRFTISLDSAKNTVYLQMNSLKPEDTAMYYCAAAPGPLSRHYWYTSANYDYWGQGTQVTVSS | > 20 |
| SEQ ID NO 52 (VHH, pMECS-expressed; also called VHH numbered 52) VHH: QVQLQESGGGSVQTGGSLRLSCAASTSIYSNNYMAWFRQAPGKGREGVAAVYVDDGRPYYADSVKGRFTISRDSAKNTVYLQMNSLKPEDTAMYYCAAAPGPLSRHYWYTSANYDYWGPGTQVTVSS | > 20 |
| SEQ ID NO 53 (VHH, pMECS-expressed; also called VHH numbered 53) VHH: QVQLQESGGGSVQTGGSLRLSCAASTSIYSNNYMAWFSQAPGKGREGVAAVYIDDGRPYYADSVKGRFTISLDSAKNTVYLQMNSLKPEDTAMYYCAAAPGPLSRNYWYTSANYDYWGQGTQVTVSS | > 20 |
| SEQ ID NO 54 (VHH, pMECS-expressed; also called VHH numbered 54) VHH: QVQLQESGGGSVQTGGSLRLSCAPSTSIYDNNYMAWFSQAPGKGREGVAAIYIDDGRPYYADSVKGRFTISLDSAKNTVYLQMNSLKPEDTAMYYCAAAPGPLSHNYWYTSANYDYWGQGTQVTVSS | > 20 |
| SEQ ID NO 55 (VHH, pMECS-expressed; also called VHH numbered 55) VHH: QVQLQESGGGSVQTGGSLRLSCVASTSIFSNNYMAWFSQAPGKGREGVAAVYIGDGRPYYADSVKGRFTISLDSAKNTVYLQMNSLKPEDTAMYYCAAAPGPLSHNYWYTSANYDYWGQGTQVTVSS | > 20 |
| SEQ ID NO 56 (VHH, pMECS-expressed; also called VHH numbered 56) VHH: QVQLQESGGGSVQTGGSLRLSCAASPSIYSANYMAWFSQAPGKGREGVAAVYIGDGRPYYADSVKGRFTISLDSAKSTVYLQMNSLKPEDTAMYYCAAAPGPLSHNYWYTSANYDYWGQGTQVTVSS | > 20 |
| SEQ ID NO 57 (VHH, pMECS-expressed; also called VHH numbered 57) VHH: QVQLQESGGGSVQTGGSLRLSCAASTSIYSINYMAWFSQAPGKGREGVAAVYIDDGRPYYADSVKGRFTISLDSAKNTVYLQMNSLKSEDTAMYYCAAAPGPLSRNYWYTSANYDYWGQGTQVTVSS | > 20 |
| SEQ ID NO 59 (VHH, pMECS-expressed; also called VHH numbered 59) VHH: QVQLQESGGGSVQTGGSLRLSCACSTSIYSNNYMAWFSQAPGKGREGVAAVYIGDGRPYYTDSVKGRFTISLDSAKNTLYLQMNSLKPEDTAMYYCAAAPGPLSHNYWYTSANYDYWGQGTQVTVSS | > 20 |
| SEQ ID NO 60 (VHH, pMECS-expressed; also called VHH numbered 60) VHH: QVQLQESGGGSVQTGGSLRLSCAASTSIYSMNYMAWFSQAPGKGREGVAAVYIEDGRPYYADSVKGRFTISPDRAKNTVYLQMNSLKPEDTAMYYCAAAPGPLSRNYWYTSANYDYWGQGTQVTVSS | > 20 |
| SEQ ID NO 62 (VHH, pMECS-expressed; also called VHH numbered 62) VHH: QVQLQESGGGSVQAGGSLRLSCAASTSIYSNNYMAWFRQTPGKGREGVAAVYIDDGRPYYADSVKGRFTISLDSAKNTVYLQMNSLKPEDTAMYYCAAAPGPLSHDYWYTSANYDYWGPGTQVTVSS | > 20 |
| SEQ ID NO 63 (VHH, pMECS-expressed; also called VHH numbered 63) VHH: QVQLQESGGGSVQTGGSLRLSCAASTSIYSNNYMAWFSQAPGKGREGVAAVYIDDGRPYYADSVKGRFTISLDSAKNTVYLQMNRLKPEDTAMYYCAAAPGPLSHNYWYTSANYDYWGQGTQVTVSS | > 20 |
| SEQ ID NO 64 (VHH, pMECS-expressed; also called VHH numbered 64) VHH: QVQLQESGGGSVQTGGSLRLSCAASTSIYSNNYMAWFSQAPGKGREGVAAVYIDDGRPYYADSVKGRFTISLDSAKNTVYLQMNSLKPEDTAMYYCAATPGPLSQHYWYTSANYDYWGQGTQVTVSS | > 20 |
| SEQ ID NO 66 (VHH, pMECS-expressed; also called VHH numbered 66) VHH: QVQLQESGGGSVQTGGSLRLSCAASTSIYNNNYMAWFSQAPGKGREGVAAVYVGDGRTYYADSVKGRFTISLDSAKNTVYLQMNSLKPEDTAMYYCAAAPGPLSHNYWYTSANYDYWGQGTQVTVSS | > 20 |
| SEQ ID NO 67 (VHH, pMECS-expressed; also called VHH numbered 67) VHH: QVQLQESGGGSVQTGGSLRLSCTASTSIYSNNYMAWFSQAPGKGREGVAAVYIDDGRPYYADSVKGRFTISLDSAKNTVYLQMNSLKPEDTAMYYCAAAPGPLSRNYWYTSANYDYWGQGTQVTVSS | > 20 |
| SEQ ID NO 68 (VHH, pMECS-expressed; also called VHH numbered 68) VHH: QVQLQESGGGSVQTGGSLRLSCTCSTSIYSNNYMAWFSQAPGKGREGVAAVYIGDGRPYYADSVKGRFTISLDSAKNTVYLQMNSLKPEDTAMYYCAAAPGPLSHNYWYTSANYDYWGQGTQVTVSS | > 20 |
| SEQ ID NO 69 (VHH, pMECS-expressed; also called VHH numbered 69) VHH: QVQLQESGGGSVQTGGSLRLSCAASTSIYSNNYMAWFSQAPGKGREGVAAVYIGDGRPYYADSVKGRFTISLDSAKNTVYLQMNSLKPEDTAMYYCAAAPGPLSHNYWYTSANYDYWGQGTQVTVSS | > 20 |
| SEQ ID NO 75 (VHH, pMECS-expressed; also called VHH numbered 75) VHH: QVQLQESGGGSVQTGGSLRLSCAASTSIYSNNYMAWFRQAPGKGREGVAAVYIGDGRPYYADSAKGRFTISLDSAKNTVYLHMNSLKPEDTAMYYCAAAPGPLSRHYWYTSANYDYWGPGTQVTVSS | > 20 |
